Molecular target: recombinant His-p27 (full-length p27Kip1, C-terminal histidine tag) (human) (UniProt P46527)
Test: phage-ELISA, SH3-displaying phage on recombinant His-p27 (multivalent phage, which would enhance binding)

Chain of recombinant His-p27 (full-length p27Kip1, C-terminal histidine tag) (human) (P46527 whole entry): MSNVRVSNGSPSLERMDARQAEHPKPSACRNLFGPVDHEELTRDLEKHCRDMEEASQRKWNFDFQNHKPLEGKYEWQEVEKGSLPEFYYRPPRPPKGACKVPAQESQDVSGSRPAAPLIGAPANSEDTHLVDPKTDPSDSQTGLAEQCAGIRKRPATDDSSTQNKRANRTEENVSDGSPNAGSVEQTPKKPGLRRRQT

## SH3 domain of Brk displayed on phage (from UniProt Q13882 12-70)
  Kd: 250 nM

— patent US20170065662A1
